The results in this text go back to US20130336885A1 (Genentech, published 2013).

The labels stand for the following.
T1: human LgR5 ECD (amino acids 22-557 fused to His-Fc expressed in a baculovirus system, or amino acids 22-558 … (human, UniProt O75473 22-557))
T1 construct: not shown: C-terminal His-tagged Fc
T1 sequence: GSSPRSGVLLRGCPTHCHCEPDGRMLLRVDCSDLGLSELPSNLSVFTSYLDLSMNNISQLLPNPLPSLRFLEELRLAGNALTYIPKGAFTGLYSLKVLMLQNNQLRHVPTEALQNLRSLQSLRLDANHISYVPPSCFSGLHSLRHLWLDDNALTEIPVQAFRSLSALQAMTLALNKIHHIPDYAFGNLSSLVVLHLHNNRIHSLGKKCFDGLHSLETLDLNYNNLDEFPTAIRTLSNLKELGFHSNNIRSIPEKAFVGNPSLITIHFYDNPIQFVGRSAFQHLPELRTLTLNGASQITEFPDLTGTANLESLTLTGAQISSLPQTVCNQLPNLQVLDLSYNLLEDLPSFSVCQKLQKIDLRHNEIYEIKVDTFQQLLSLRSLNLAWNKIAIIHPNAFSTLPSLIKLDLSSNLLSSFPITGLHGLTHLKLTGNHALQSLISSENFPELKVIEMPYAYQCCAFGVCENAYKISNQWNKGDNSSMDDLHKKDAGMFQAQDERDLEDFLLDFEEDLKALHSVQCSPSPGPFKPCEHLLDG

B1: h8E11.v3 (antibody, V domains shown)
VH: EVQLVQSGAEVKKPGASVKVSCKASGYTFSAYWIEWVRQAPGQGLEWIGEILPGSDSTDYNEKFKVRVTITSDTSTSTVYLELSSLRSEDTAVYYCARGGHYGSLDYWGQGTLVTVSS
VL: DIVMTQSPDSLAVSLGERATINCRASESVDNYGNSFMHWYQQKPGQPPKLLIYLASNLESGVPDRFSGSGSRTDFTLTISSLQAEDVAVYYCQQNYEDPFTFGQGTKVEIKR
notes: VH CDR graft + 71S/78V; also called hu8E11.v3
B2: h8E11.v4 (antibody, V domains shown)
VH: EVQLVQSGAEVKKPGASVKVSCKASGYTFSAYWIEWVRQAPGQGLEWIGEILPGSDSTDYNEKFKVRATFTSDTSTSTVYLELSSLRSEDTAVYYCARGGHYGSLDYWGQGTLVTVSS
VL: DIVMTQSPDSLAVSLGERATINCRASESVDNYGNSFMHWYQQKPGQPPKLLIYLASNLESGVPDRFSGSGSRTDFTLTISSLQAEDVAVYYCQQNYEDPFTFGQGTKVEIKR
notes: VH CDR graft + 67A/69F/71S/78V; also called hu8E11.v4
B3: h8E11.v7 (antibody, V domains shown)
VH: EVQLVQSGAEVKKPGASVKVSCKASGYTFSAYWIEWVRQAPGQGLEWIGEILPGSDSTDYNEKFKVRVTITRDTSTSTAYLELSSLRSEDTAVYYCARGGHYGSLDYWGQGTLVTVSS
VL: DIVMTQSPDSLAVSLGERATINCRASESVDNYGNSFMHWYQQKPGQPPKLLIYLASNLESGVPDRFSGSGSRTDFTLTISSLQAEDVAVYYCQQNYEDPFTFGQGTKVEIKR
notes: VH CDR graft + 71R/78A; also called hu8E11.v7
B4: h8E11.v5 (antibody, V domains shown)
VH: EVQLVQSGAEVKKPGASVKVSCKASGYTFSAYWIEWVRQAPGQGLEWIGEILPGSDSTDYNEKFKVRVTITRDTSTSTAYLELSSLRSEDTAVYYCARGGHYGSLDYWGQGTLVTVSS
VL: DIVMTQSPDSLAVSLGERATINCRASESVDNYGNSFMHWYQQKPGQPPKLLIYLASNLESGVPDRFSGSGSGTDFTLTISSLQAEDVAVYYCQQNYEDPFTFGQGTKVEIKR
notes: VH CDR graft + 71R/78A; also called hu8E11.v5
B5: h8E11.v8 (antibody, V domains shown)
VH: EVQLVQSGAEVKKPGASVKVSCKASGYTFSAYWIEWVRQAPGQGLEWIGEILPGSDSTDYNEKFKVRVTITADTSTSTAYLELSSLRSEDTAVYYCARGGHYGSLDYWGQGTLVTVSS
VL: DIVMTQSPDSLAVSLGERATINCRASESVDNYGNSFMHWYQQKPGQPPKLLIYLASNLESGVPDRFSGSGSRTDFTLTISSLQAEDVAVYYCQQNYEDPFTFGQGTKVEIKR
notes: VH CDR graft + 71A/78A; also called hu8E11.v8
B6: h8E11.v1 (antibody, V domains shown)
VH: EVQLVQSGAEVKKPGASVKVSCKASGYTFSAYWIEWVRQAPGQGLEWIGEILPGSDSTDYNEKFKVRVTITSDTSTSTVYLELSSLRSEDTAVYYCARGGHYGSLDYWGQGTLVTVSS
VL: DIVMTQSPDSLAVSLGERATINCRASESVDNYGNSFMHWYQQKPGQPPKLLIYLASNLESGVPDRFSGSGSGTDFTLTISSLQAEDVAVYYCQQNYEDPFTFGQGTKVEIKR
notes: VH CDR graft + 71S/78V; also called hu8E11.v1
B7: h8E11.v6 (antibody, V domains shown)
VH: EVQLVQSGAEVKKPGASVKVSCKASGYTFSAYWIEWVRQAPGQGLEWIGEILPGSDSTDYNEKFKVRVTITADTSTSTAYLELSSLRSEDTAVYYCARGGHYGSLDYWGQGTLVTVSS
VL: DIVMTQSPDSLAVSLGERATINCRASESVDNYGNSFMHWYQQKPGQPPKLLIYLASNLESGVPDRFSGSGSGTDFTLTISSLQAEDVAVYYCQQNYEDPFTFGQGTKVEIKR
notes: VH CDR graft + 71A/78A; also called hu8E11.v6

The assay concerns the target T1, human LgR5 ECD (amino acids 22-557 …). Briefly: BIAcore-3000 SPR, IgG captured on goat anti-human Fc, human LgR5 ECD-Fc injected, 25 C, 1:1 Langmuir model. The method, then: The affinity of each 8E11 IgG variant for human LgR5 was determined by surface plasmon resonance using a BIAcore™-3000. BIAcore™ research grade CMS chips were activated with 1-ethyl-3-(3-dimethylaminopropyl) carbodiimide (EDC) and N-hydroxysuccinimide (NHS) reagents according to the supplier's instructions. Goat anti-human Fc IgGs were coupled to the chips to achieve approximately 10,000 response units (RU) in each flow cell. Unreacted coupling groups were blocked with 1M ethanolamine. For kinetics measurements, anti-LGR5 antibodies were captured to achieve approximately 300 RU. Two-fold serial dilutions of human LgR5ECD (amino acids 22-557 fused to His-Fc expressed in a baculovirus system, or amino acids 22-558 fused to Fc expressed from CHO cells; 125 nM to 0.49 nM) were injected in HBS-P buffer (0.01M HEPES pH7.4, 0.15M NaCl, 0.005% surfactant P20) at 25° C. with a flow rate of 30 μl/min. Association rates (kₒₙ) and dissociation rates (koff) were calculated using a 1:1 Langmuir binding model (BIAcore™ Evaluation Software version 3.2). The equilibrium dissociation constant (Kd) was calculated as the ratio koff/kₒₙ.
(In general: Surface plasmon resonance follows binding to a sensor surface in real time, without labels.)
In turn, B1 showed a Kd of 4.73 nM, a dissociation rate constant (koff) of 0.00053 s⁻¹ and a kon of 112000 M⁻¹ s⁻¹.

The molecule B2 gave an equilibrium dissociation constant (Kd) of 3.63 nM, a koff of 0.000922 s⁻¹ and an on-rate constant (kon) of 254000 M⁻¹ s⁻¹.

The molecule B3 displayed a Kd of 22.1 nM, a koff of 0.00258 s⁻¹ and a kon of 117000 M⁻¹ s⁻¹.

Turning to B4, the Kd was found to be 14.3 nM, the koff was found to be 0.000933 s⁻¹ and the on-rate (kon) amounted to 65000 M⁻¹ s⁻¹.

Regarding B5, the Kd stood at 8.97 nM, the koff was found to be 0.00217 s⁻¹ and the kon worked out at 242000 M⁻¹ s⁻¹.

The molecule B6 yielded a Kd of 5.05 nM, a koff of 0.000772 s⁻¹ and a kon of 153000 M⁻¹ s⁻¹.

In turn, B7 gave an equilibrium dissociation constant (Kd) of 14.1 nM, a koff of 0.00202 s⁻¹ and a kon of 143000 M⁻¹ s⁻¹.

One may read the Kd as the free concentration of one partner at which half of the binding sites on the other are occupied at equilibrium, for simple one-to-one binding. In general, koff refers to the first-order rate constant of dissociation. A high value points to fast dissociation. The term kon denotes the rate constant with which the complex forms. Read a high kon as faster complex formation.
